Consider 3 substances from patent publication US5804412.

Test [1] concerns the target endogenous EGFR of CV-1 cells (monkey (endogenous EGFR of CV-1 monkey kidney cells)). Briefly: Scatchard analysis of 125I-EGF binding to SNX1 transfected CV-1 cells.
For test [2] the target is unchanged. Description: Scatchard analysis of 125I-EGF binding to vector transfected control CV-1 cells.
Test [3] shares this target.
Test [4] addresses EGFR core tyrosine kinase domain (residues 663-958) fused to LexA (human) (UniProt P00533). Briefly: yeast two hybrid, LexA-EGFR bait and SNX1-B42 prey, galactose against dextrose control.

For the substance 125I-EGF (ligand), the Kd – broadly, the constant that tells how readily two partners part at equilibrium – amounted to 1.34 nM in test [1] and 0.73 nM in test [2]. In the case of “human SNX1 (sorting nexin 1), full length”, in test [3], the EGFR half life (35S-methionine pulse chase, immunoprecipitation) is 2 h. Consider “carboxy terminal 58 amino acids of SNX1 fused to the B42 acid patch transcriptional activation domain”, for which the induction of β-gal activity in response to galactose induction in test [4] turned out to be 400 x.
